{"source": "paper PMC12057046", "about": "“Elucidation of short linear motif-based interactions of the MIT and rhodanese domains of the ubiquitin-specific protease 8” (Biology Direct, 2025)", "parents": {"B1": {"name": "TET3 peptide 1705-1720 (methylcytosine dioxygenase TET3), 16-mer library wild type / USP8 rhodanese domain (ubiquitin carboxyl-terminal hydrolase 8, residues 174-317) (parent)", "chain 1": "GLALWEAKMKQLAERA", "chain 2": "KCETKEKGAITAKELYTMMTDKNISLIIMDARRMQDYQDSCILHSLSVPEEAISPGVTASWIEAHLPDDSKDTWKKRGNVEYVVLLDWFSSAKDLQIGTTLRSLKDALFKWESKTVLRNEPLVLEGGYENWLLCYPQYTTNAKV"}, "B2": {"name": "KIAA1614 peptide 568-583 (uncharacterized protein KIAA1614), 16-mer library wild type / USP8 rhodanese domain (ubiquitin carboxyl-terminal hydrolase 8, residues 174-317) (parent)", "chain 1": "GMERVLGGLSSPLRLL", "chain 2": "B1 chain 2"}}}
{"variants_of": "B1", "test": "peptide-phage display deep mutational scan (M13, 16-mer library, displayed with a C-terminal GGGSG linker encoded by the 3' flank) selected against the GST-tagged USP8 rhodanese domain, four rounds; NGS counts summed over selection …", "conditions": "with USP8 rhodanese domain (ubiquitin carboxyl-terminal hydrolase 8, residues 174-317), 10 µg GST-bait on MaxiSorp, pre-cleared on GST, 2 h at 4 °C, five washes with 0.05% Tween 20 in PBS, not graded, scale: average over two replicas of the peptide's fractional NGS count"}
{"variant": "chain 1 A3F", "screen value": "4.33e-06"}
{"variant": "chain 1 A3P", "screen value": 0.000452}
{"variant": "chain 1 A3W", "screen value": "9.64e-05"}
{"variant": "chain 1 A3K", "screen value": "1.3e-05"}
{"variant": "chain 1 A3M", "screen value": 0.00023}
{"variant": "chain 1 A3I", "screen value": "4.33e-06"}
{"variant": "chain 1 A7Y", "screen value": "2.3e-05"}
{"variant": "chain 1 A7P", "screen value": "5.46e-05"}
{"variant": "chain 1 A7G", "screen value": "7.04e-05"}
{"variant": "chain 1 A7V", "screen value": "5.18e-05"}
{"variant": "chain 1 A7L", "screen value": "4.33e-06"}
{"variant": "chain 1 A7R", "screen value": "4.33e-06"}
{"variant": "chain 1 A7E", "screen value": "8.66e-06"}
{"variant": "chain 1 A7T", "screen value": 0.000404}
{"variant": "chain 1 A7M", "screen value": 0.000234}
{"variant": "chain 1 A7S", "screen value": "2.3e-05"}
{"variant": "chain 1 A7W", "screen value": 0.0002}
{"variant": "chain 1 A7N", "screen value": 0.000194}
{"variant": "chain 1 A7I", "screen value": "3.9e-05"}
{"variant": "chain 1 A7F", "screen value": "4.33e-06"}
{"variant": "chain 1 A7Q", "screen value": 0.00623}
{"variant": "chain 1 A7H", "screen value": 0.00234}
{"variant": "chain 1 Q11V", "screen value": "8.66e-06"}
{"variant": "chain 1 Q11H", "screen value": 0.000267}
{"variant": "chain 1 Q11L", "screen value": 0.0108}
{"variant": "chain 1 Q11G", "screen value": 0.000837}
{"variant": "chain 1 Q11W", "screen value": "2.17e-05"}
{"variant": "chain 1 Q11R", "screen value": 0.000162}
{"variant": "chain 1 Q11Y", "screen value": "8.66e-05"}
{"variant": "chain 1 Q11N", "screen value": 0.00283}
{"variant": "chain 1 Q11S", "screen value": 0.00344}
{"variant": "chain 1 Q11T", "screen value": 0.000142}
{"variant": "chain 1 Q11F", "screen value": "4.33e-06"}
{"variant": "chain 1 Q11M", "screen value": 0.000201}
{"variant": "chain 1 Q11A", "screen value": "3.6e-05"}
{"variant": "chain 1 Q11D", "screen value": 0.00724}
{"variant": "chain 1 Q11K", "screen value": "1.15e-05"}
{"variant": "chain 1 Q11I", "screen value": "8.66e-06"}
{"variants_of": "B2", "test": "peptide-phage display deep mutational scan (M13, 16-mer library, displayed with a C-terminal GGGSG linker encoded by the 3' flank) selected against the GST-tagged USP8 rhodanese domain, four rounds; NGS counts summed over selection …", "conditions": "with USP8 rhodanese domain (ubiquitin carboxyl-terminal hydrolase 8, residues 174-317), 10 µg GST-bait on MaxiSorp, pre-cleared on GST, 2 h at 4 °C, five washes with 0.05% Tween 20 in PBS, not graded, scale: average over two replicas of the peptide's fractional NGS count"}
{"variant": "chain 1 L13M", "screen value": 0.000258}
{"variant": "chain 1 L13Y", "screen value": 0.000122}
{"variant": "chain 1 L13P", "screen value": "1.26e-05"}
{"variant": "chain 1 L13F", "screen value": "3.09e-05"}
{"variant": "chain 1 L13S", "screen value": 0.00179}
{"variant": "chain 1 L13N", "screen value": "6.32e-06"}
{"variant": "chain 1 L13R", "screen value": "1.26e-05"}
{"variant": "chain 1 L13D", "screen value": "3.72e-05"}
{"variant": "chain 1 L13G", "screen value": "6.32e-05"}
{"variant": "chain 1 L13T", "screen value": 0.00145}
{"variant": "chain 1 L13V", "screen value": 0.000364}
{"variant": "chain 1 L13H", "screen value": "2.53e-05"}
{"variant": "chain 1 L13W", "screen value": 0.000724}
{"variant": "chain 1 L13K", "screen value": "6.32e-06"}
{"variant": "chain 1 L13A", "screen value": "4.42e-05"}
{"variant": "chain 1 L13E", "screen value": 0.000467}
{"variant": "chain 1 L9F", "screen value": "3.79e-05"}
{"variant": "chain 1 L9M", "screen value": "9.62e-05"}
{"variant": "chain 1 L9Y", "screen value": "6.18e-05"}
{"variant": "chain 1 L9E", "screen value": 0.164}
{"variant": "chain 1 L9N", "screen value": 0.00178}
{"variant": "chain 1 L9G", "screen value": "9.76e-05"}
{"variant": "chain 1 L9W", "screen value": 0.000202}
{"variant": "chain 1 L9K", "screen value": "9.69e-05"}
{"variant": "chain 1 L9I", "screen value": 0.000484}
{"variant": "chain 1 L9V", "screen value": 0.00586}
{"variant": "chain 1 L9S", "screen value": 0.000763}
{"variant": "chain 1 L9H", "screen value": "4.07e-05"}
{"variant": "chain 1 L9Q", "screen value": 0.0169}
{"variant": "chain 1 L9D", "screen value": 0.0392}
{"variant": "chain 1 L9T", "screen value": 0.0151}
{"variant": "chain 1 L9P", "screen value": 0.000947}
{"variant": "chain 1 L9A", "screen value": 0.00126}
{"variant": "chain 1 L9R", "screen value": "1.26e-05"}
{"variant": "chain 1 L16P", "screen value": "1.26e-05"}
{"variant": "chain 1 L16A", "screen value": "1.55e-05"}
{"variant": "chain 1 L16I", "screen value": 0.000468}
{"variant": "chain 1 L16M", "screen value": 0.00379}
{"variant": "chain 1 L16T", "screen value": "1.55e-05"}
{"variant": "chain 1 L16N", "screen value": "6.32e-06"}
{"variant": "chain 1 L16V", "screen value": "5.05e-05"}
{"variant": "chain 1 L16H", "screen value": 0.000246}
{"variant": "chain 1 L16F", "screen value": "2.53e-05"}
{"variant": "chain 1 L16G", "screen value": "6.32e-06"}
{"variant": "chain 1 L16Q", "screen value": "7.58e-05"}
{"variant": "chain 1 L15A", "screen value": "1.26e-05"}
{"variant": "chain 1 L15I", "screen value": "6.32e-06"}
{"variant": "chain 1 L15V", "screen value": "1.26e-05"}
{"variant": "chain 1 L15G", "screen value": "1.26e-05"}
{"variant": "chain 1 L15N", "screen value": "1.26e-05"}
{"variant": "chain 1 L6V", "screen value": "6.32e-06"}
{"variant": "chain 1 L6Q", "screen value": "1.9e-05"}
{"variant": "chain 1 L6G", "screen value": "6.88e-05"}
{"variant": "chain 1 L6T", "screen value": "5.05e-05"}
{"variant": "chain 1 L6N", "screen value": "6.32e-06"}
{"variant": "chain 1 L6I", "screen value": 0.00654}
{"variant": "chain 1 L6F", "screen value": "6.32e-06"}
{"variant": "chain 1 L6P", "screen value": 0.000164}
{"variant": "chain 1 L6S", "screen value": "6.32e-06"}
{"variant": "chain 1 M2K", "screen value": 0.00296}
{"variant": "chain 1 M2V", "screen value": 0.0166}
{"variant": "chain 1 M2T", "screen value": 0.0119}
{"variant": "chain 1 M2N", "screen value": 0.00694}
{"variant": "chain 1 M2Q", "screen value": 0.00237}
{"variant": "chain 1 M2E", "screen value": 0.0668}
{"variant": "chain 1 M2S", "screen value": 0.00782}
{"variant": "chain 1 M2A", "screen value": 0.00538}
{"variant": "chain 1 M2I", "screen value": 0.00918}
{"variant": "chain 1 M2W", "screen value": 0.000604}
{"variant": "chain 1 M2F", "screen value": 0.00131}
{"variant": "chain 1 M2R", "screen value": 0.00145}
{"variant": "chain 1 M2L", "screen value": 0.00111}
{"variant": "chain 1 M2P", "screen value": 0.0198}
{"variant": "chain 1 M2H", "screen value": 0.0157}
{"variant": "chain 1 M2G", "screen value": 0.0456}
{"variant": "chain 1 M2D", "screen value": 0.0101}
{"variant": "chain 1 G1K", "screen value": 0.000202}
{"variant": "chain 1 G1H", "screen value": 0.00494}
{"variant": "chain 1 G1R", "screen value": 0.000532}
{"variant": "chain 1 G1P", "screen value": 0.00104}
{"variant": "chain 1 G1F", "screen value": "6.32e-06"}
{"variant": "chain 1 G1Q", "screen value": 0.0088}
{"variant": "chain 1 G1A", "screen value": 0.0197}
{"variant": "chain 1 G1N", "screen value": 0.0012}
{"variant": "chain 1 G1L", "screen value": "3.16e-05"}
{"variant": "chain 1 G1V", "screen value": "3.79e-05"}
{"variant": "chain 1 G1D", "screen value": 0.00131}
{"variant": "chain 1 G1M", "screen value": 0.000324}
{"variant": "chain 1 G1W", "screen value": 0.00137}
{"variant": "chain 1 G1T", "screen value": 0.00523}
{"variant": "chain 1 G1S", "screen value": 0.00457}
{"variant": "chain 1 G1Y", "screen value": 0.000202}
{"variant": "chain 1 G1I", "screen value": "8.36e-05"}
{"variant": "chain 1 G1E", "screen value": 0.000708}
{"variant": "chain 1 G7P", "screen value": "1.55e-05"}
{"variant": "chain 1 G7D", "screen value": 0.0412}
{"variant": "chain 1 G7T", "screen value": 0.0883}
{"variant": "chain 1 G7F", "screen value": 0.00722}
{"variant": "chain 1 G7H", "screen value": 0.000322}
{"variant": "chain 1 G7A", "screen value": 0.00275}
{"variant": "chain 1 G7K", "screen value": "1.55e-05"}
{"variant": "chain 1 G7I", "screen value": 0.000523}
{"variant": "chain 1 G7L", "screen value": 0.000596}
{"variant": "chain 1 G7R", "screen value": 0.00011}
{"variant": "chain 1 G7W", "screen value": "6.32e-06"}
{"variant": "chain 1 G7E", "screen value": 0.00446}
{"variant": "chain 1 G7Y", "screen value": 0.000924}
{"variant": "chain 1 G7S", "screen value": 0.000797}
{"variant": "chain 1 G7V", "screen value": 0.0068}
{"variant": "chain 1 G7Q", "screen value": 0.00689}
{"variant": "chain 1 G7M", "screen value": 0.00706}
{"variant": "chain 1 G7N", "screen value": 0.00247}
{"variant": "chain 1 E3Y", "screen value": 0.000118}
{"variant": "chain 1 E3A", "screen value": 0.000229}
{"variant": "chain 1 E3V", "screen value": "1.26e-05"}
{"variant": "chain 1 E3H", "screen value": 0.00012}
{"variant": "chain 1 E3N", "screen value": 0.000897}
{"variant": "chain 1 E3Q", "screen value": 0.00108}
{"variant": "chain 1 E3D", "screen value": 0.00356}
{"variant": "chain 1 E3P", "screen value": "9.48e-05"}
{"variant": "chain 1 E3L", "screen value": "6.32e-05"}
{"variant": "chain 1 E3W", "screen value": 0.000133}
{"variant": "chain 1 E3S", "screen value": 0.000223}
{"variant": "chain 1 E3T", "screen value": "8.85e-05"}
{"variant": "chain 1 E3F", "screen value": "6.32e-06"}
{"variant": "chain 1 G8D", "screen value": "6.32e-06"}
{"variant": "chain 1 G8V", "screen value": 0.000138}
{"variant": "chain 1 G8T", "screen value": "6.32e-06"}
{"variant": "chain 1 G8N", "screen value": "1.26e-05"}
